Results: paper PMC7005700

Tests used:
[1] = biological target: USF-1 (UniProt P22415); assay: co-immunoprecipitation, immunoblot; conditions: reference: wild type; sites T505
[2] = biological target: USF-1 overexpressed in 293FT cells (UniProt P22415)
[3] = biological target: USF-1 overexpressed in 293FT cells (UniProt P22415); remark: listed apart in the source

Chain of USF-1 overexpressed in 293FT cells (P22415 whole entry): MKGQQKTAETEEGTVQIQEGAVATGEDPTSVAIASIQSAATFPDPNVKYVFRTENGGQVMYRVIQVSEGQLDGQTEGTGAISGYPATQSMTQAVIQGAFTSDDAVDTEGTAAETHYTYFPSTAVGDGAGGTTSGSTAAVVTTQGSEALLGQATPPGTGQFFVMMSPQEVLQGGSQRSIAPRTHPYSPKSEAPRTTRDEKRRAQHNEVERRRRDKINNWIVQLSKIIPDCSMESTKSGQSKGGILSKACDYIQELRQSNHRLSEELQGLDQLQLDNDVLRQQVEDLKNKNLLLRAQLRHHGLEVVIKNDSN

Row | Substance | binding against the reference [1] | ChIP-qPCR enrichment at the FAS promoter (FAS promoter luc construct) upon insulin treatment [2] [fold] | FAS promoter (-444-FAS promoter-luciferase) activity in 293FT cells co-transfected with JMJD1C along with USF-1 [3] [fold]
1 | JMJD1C (from UniProt Q15652) T505A | lost |  | 
2 | JMJD1C T505D mutant, Q15652 1-2540 |  | 17 | 
3 | WT JMJD1C, Q15652 1-2540 |  | 12 | 27
